Source: patent US20180244725
Substitutions are numbered along the chain they refer to. In names and notes the source's numbering stands.

Molecular target: T1, R5 peptide
T1 chain: SSKKSGSYSGSKGSKRRIL

B1: deoxyhypusine hydroxulase (DOHH) (protein)
chain: MVTEQEVDAIGQTLVDPKQPLQARFRALFTLRGLGGPGAIAWISQAFDDDSALLKHELAYCLGQMQDARAIPMLVDVLQDTRQEPMVRHEAGEALGAIGDPEVLEILKQYSSDPVIEVAETCQLAVRRLEWLQQHGGEPAAGPYLSVDPAPPAEERDVGRLREALLDESRPLFERYRAMFALRNAGGEEAALALAEGLHCGSALFRHEVGYVLGQLQHEAAVPQLAAALARCTENPMVRHECAEALGAIARPACLAALQAHADDPERVVRESCEVALDMYEHETGRAFQYADGLEQLRGAPS
In the case of B1, the “hypusination of R5 (LC-MS time course)” value is reported as “A time course showing the conversion of two lysine to hypusine residues was determined by LC-MS”.

B2: BRSK2 (protein)
chain: MWPPDPDPDPDPEPAGGSRPGPAVPGLRALLPARAFLCSLKGRLLLAESGLSFITFICYVASSASAFLTAPLLEFLLALYFLFADAMQLNDKWQGLCWPMMDFLRCVTAALIYFAISITAIAKYSDGASKAAGVFGFFATIVFATDFYLIFNDVAKFLKQGDSADETTAHKTEEENSDSDSD
B2 was tested, and the “enzymatic modification of R5 (Phosphorylation)” value was “resulted in no modifications”.

B3: NMT2 (protein)
chain: MAEDSESAASQQSLELDDQDTCGIDGDNEEETEHAKGSPGGYLGAKKKKKKQKRKKEKPNSGGTKSDSASDSQEIKIQQPSKNPSVPMQKLQDIQRAMELLSACQGPARNIDEAAKHRYQFWDTQPVPKLDEVITSHGAIEPDKDNVRQEPYSLPQGFMWDTLDLSDAEVLKELYTLLNENYVEDDDNMFRFDYSPEFLLWALRPPGWLLQWHCGVRVSSNKKLVGFISAIPANIRIYDSVKKMVEINFLCVHKKLRSKRVAPVLIREITRRVNLEGIFQAVYTAGVVLPKPIATCRYWHRSLNPRKLVEVKFSHLSRNMTLQRTMKLYRLPDVTKTSGLRPMEPKDIKSVRELINTYLKQFHLAPVMDEEEVAHWFLPREHIIDTFVVESPNGKLTDFLSFYTLPSTVMHHPAHKSLKAAYSFYNIHTETPLLDLMSDALILAKSKGFDVFNALDLMENKTFLEKLKFGIGDGNLQYYLYNWRCPGTDSEKVGLVLQ
With B3 the “enzymatic modification of R5 (Lipidation)” value was “resulted in no modifications”.

B4: OGT (protein)
chain: ASSVGNVADSTEPTKRMLSFQGLAELAHREYQAGDFEAAERHCMQLWRQEPDNTGVLLLLSSIHFQCRRLDRSAHFSTLAIKQNPLLAEAYSNLGNVYKERGQLQEAIEHYRHALRLKPDFIDGYINLAAALVAAGDMEGAVQAYVSALQYNPDLYCVRSDLGNLLKALGRLEEAKACYLKAIETQPNFAVAWSNLGCVFNAQGEIWLAIHHFEKAVTLDPNFLDAYINLGNVLKEARIFDRAVAAYLRALSLSPNHAVVHGNLACVYYEQGLIDLAIDTYRRAIELQPHFPDAYCNLANALKEKGSVAEAEDCYNTALRLCPTHADSLNNLANIKREQGNIEEAVRLYRKALEVFPEFAAAHSNLASVLQQQGKLQEALMHYKEAIRISPTFADAYSNMGNTLKEMQDVQGALQCYTRAIQINPAFADAHSNLASIHKDSGNIPEAIASYRTALKLKPDFPDAYCNLAHCLQIVCDWTDYDERMKKLVSIVADQLEKNRLPSVHPHHSMLYPLSHGFRKAIAERHGNLCLDKINVLHKPPYEHPKDLKLSDGRLRVGYVSSDFGNHPTSHLMQSIPGMHNPDKFEVFCYALSPDDGTNFRVKVMAEANHFIDLSQIPCNGKAADRIHQDGIHILVNMNGYTKGARNELFALRPAPIQAMWLGYPGTSGALFMDYIITDQETSPAEVAEQYSEKLAYMPHTFFIGDHANMFPHLKKKAVIDFKSNGHIYDNRIVLNGIDLKAFLDSLPDVKIVKMKCPDGGDNADSSNTALNMPVIPMNTIAEAVIEMINRGQIQITINGFSISNGLATTQINNKAATGEEVPRTIIVTTRSQYGLPEDAIVYCNFNQLYKIDPSTLQMWANILKRVPNSVLWLLRFPAVGEPNIQQYAQNMGLPQNRIIFSPVAPKEEHVRRGQLADVCLDTPLCNGHTTGMDVLWAGTPMVTMPGETLASRVAASQLTCLGCLELIAKNRQEYEDIAVKLGTDLEYLKKVRGKVWKQRISSPLFNTKQYTMELERLYLQMWEHYAAGNKPDHMIKPVEVTESA
In the case of B4, the “enzymatic modification of R5 (Glycosylation)” value is reported as “resulted in no modifications”.

B5: POMT1 (protein)
chain: MWGFLKRPVVVTADINLSLVALTGMGLLSRLWRLTYPRAVVFDEVYYGQYISFYMKQIFFLDDSGPPFGHMVLALGGYLGGFDGNFLWNRIGAEYSSNVPVWSLRLLPALAGALSVPMAYQIVLELHFSHCAAMGAALLMLIENALITQSRLMLLESVLIFFNLLAVLSYLKFFNCQKHSPFSLSWWFWLTLTGVACSCAVGIKYMGVFTYVLVLGVAAVHAWHLLGDQTLSNVGADVQCCMRPACMGQMQMSQGVCVFCHLLARAVALLVIPVVLYLLFFYVHLILVFRSGPHDQIMSSAFQASLEGGLARITQGQPLEVAFGSQVTLRNVFGKPVPCWLHSHQDTYPMIYENGRGSSHQQQVTCYPFKDVNNWWIVKDPRRHQLVVSSPPRPVRHGDMVQLVHGMTTRSLNTHDVAAPLSPHSQEVSCYIDYNISMPAQNLWRLEIVNRGSDTDVWKTILSEVRFVHVNTSAVLKLSGAHLPDWGYRQLEIVGEKLSRGYHGSTVWNVEEHRYGASQEQRERERELHSPAQVDVSRNLSFMARFSELQWRMLALRSDDSEHKYSSSPLEWVTLDTNIAYWLHPRTSAQIHLLGNIVIWVSGSLALAIYALLSLWYLLRRRRNVHDLPQDAWLRWVLAGALCAGGWAVNYLPFFLMEKTLFLYHYLPALTFQILLLPVVLQHISDHLCRSQLQRSIFSALVVAWYSSACHVSNTLRPLTYGDKSLSPHELKALRWKDSWDILIRKH
B5 was tested, and the “enzymatic modification of R5 (Glycosylation)” value was “resulted in no modifications”.

B6: vopS (protein)
chain: GKEYTINAATQEFTRANPTSGAVARFFEATGKLFREGSTQSVAKAITKAVFDNEQGQAQRLQTSSSVEHGQMLFKDANLKTPSDVLNAFAKLDSKMVKSHAAELSQLAERAMTEVMLETDSGKNLKALIGDDAVKSLAVRVVKDYGGGVAAAQKNPEVRINQMQAVFDMEVMHLKAAQRHIEGLASTDLNQGVYAEGLPEDAFNKAGVTNNVERAAAWIINASNSKGNDAENITSLLKEYATNGKDLLNMDNLKELHARLVPNVERDYRGPNISGGTLPSSIGGEGMLKQHIEGFLKENPVADKDLGKHLFAGVIGYHGFTDGNGRMGRMLYAIAELRNDSFNPLAMNAENSLHGIK
B6 was tested, and the “enzymatic modification of R5 (Adenylylation)” value was “resulted in no modifications”.

B7: GALNT1 (protein)
chain: GLPAGDVLEPVQKPHEGPGEMGKPVVIPKEDQEKMKEMFKINQFNLMASEMIALNRSLPDVRLEGCKTKVYPDNLPTTSVVIVFHNEAWSTLLRTVHSVINRSPRHMIEEIVLVDDASERDFLKRPLESYVKKLKVPVHVIRMEQRSGLIRARLKGAAVSKGQVITFLDAHCECTVGWLEPLLARIKHDRRTVVCPIIDVISDDTFEYMAGSDMTYGGFNWKLNFRWYPVPQREMDRRKGDRTLPVRTPTMAGGLFSIDRDYFQEIGTYDAGMDIWGGENLEISFRIWQCGGTLEIVTCSHVGHVFRKATPYTFPGGTGQIINKNNRRLAEVWMDEFKNFFYIISPGVTKVDYGDISSRVGLRHKLQCKPFSWYLENIYPDSQIPRHYFSLGEIRNVETNQCLDNMARKENEKVGIFNCHGMGGNQVFSYTANKEIRTDDLCLDVSKLNGPVTMLKCHHLKGNQLWEYDPVKLTLQHVNSNQCLDKATEEDSQVPSIRDCNGSRSQQWLLRNVTLPEIF
For B7, the “enzymatic modification of R5 (Glycosylation)” value was “resulted in no modifications”.

B8: lysine methyltransferase SETD7 (SET7/9) (protein)
chain: MDSDDEMVEEAVEGHLDDDGLPHGFCTVTYSSTDRFEGNFVHGEKNGRGKFFFFDGSTLEGYYVDDALQGQGVYTYEDGGVLQGTYVDGELNGPAQEYDTDGRLIFKGQYKDNIRHGVCWIYYPDGGSLVGEVNEDGEMTGEKIAYVYPDERTALYGKFIDGEMIEGKLATLMSTEEGRPHFELMPGNSVYHFDKSTSSCISTNALLPDPYESERVYVAESLISSAGEGLFSKVAVGPNTVMSFYNGVRITHQEVDSRDWALNGNTLSLDEETVIDVPEPYNHVSKYCASLGHKANHSFTPNCIYDMFVHPRFGPIKCIRTLRAVEADEELTVAYGYDHSPPGKSGPEAPEWYQVELKAFQATQQK
For B8, the “methylation of R5 (LC-MS time course)” value was “A time course showing the incorporation of zero to 16 methyl groups into R5”.

B9: SET7/9 Y305F (protein)
chain: B8 chain with Y305F
In the case of B9, the “methylation of R5 (LC-MS time course)” value is reported as “A time course showing the incorporation of zero to 16 methyl groups into R5”.

B10: LipB (protein)
chain: MYQDKILVRQLGLQPYEPISQAMHEFTDTRDDSTLDEIWLVEHYPVFTQGQAGKAEHILMPGDIPVIQSDRGGQVTYHGPGQQVMYVLLNLKRRKLGVRELVTLLEQTVVNTLAELGIEAHPRADAPGVYVGEKKICSLGLRIRRGCSFHGLALNVNMDLSPFLRINPCGYAGMEMAKISQWKPEATTNNIAPRLLENILALLNNPDFEYITA
In the case of B10, the “enzymatic modification of R5 (Lipidation)” value is reported as “resulted in no modifications”.

B11: deoxyhypusine synthase (DHPS) (protein)
chain: MEGSLEREAPAGALAAVLKHSSTLPPESTQVRGYDFNRGVNYRALLEAFGTTGFQATNFGRAVQQVNAMIEKKLEPLSQDEDQHADLTQSRRPLTSCTIFLGYTSNLISSGIRETIRYLVQHNMVDVLVTTAGGVEEDLIKCLAPTYLGEFSLRGKELRENGINRIGNLLVPNENYCKFEDWLMPILDQMVMEQNTEGVKWTPSKMIARLGKEINNPESVYYWAQKNHIPVFSPALTDGSLGDMIFFHSYKNPGLVLDIVEDLRLINTQAIFAKCTGMIILGGGVVKHHIANANLMRNGADYAVYINTAQEFDGSDSGARPDEAVSWGKIRVDAQPVKVYADASLVFPLLVAETFAQKMDAFMHEKNED
For B11, the “hypusination of R5 (LC-MS time course)” value was “A time course showing the conversion of two lysine to hypusine residues was determined by LC-MS”.

B12: LplA (protein)
chain: STLRLLISDSYDPWFNLAVEECIFRQMPATQRVLFLWRNADTVVIGRAQNPWKECNTRRMEEDNVRLARRSSGGGAVFHDLGNTCFTFMAGKPEYDKTISTSIVLNALNALGVSAEASGRNDLVVKTVEGDRKVSGSAYRETKDRGFHHGTLLLNADLSRLANYLNPDKKKLAAKGITSVRSRVTNLTELLPGITHEQVCEAITEAFFAHYGERVEAEIISPNKTPDLPNFAETFARQSSWEWNFGQAPAFSHLLDERFTWGGVELHFDVEKGHITRAQVFTDSLNPAPLEALAGRLQGCLYRADMLQQECEALLVDFPEQEKELRELSAWMAGAVR
In the case of B12, the “enzymatic modification of R5 (Lipidation)” value is reported as “resulted in no modifications”.

B13: Thermospermine synthase ACL5 (protein)
chain: MGEAVEVMFGNGFPEIHKATSPTQTLHSNQQDCHWYEETIDDDLKWSFALNSVLHQGTSEYQDIALLDTKRFGKVLVIDGKMQSAERDEFIYHECLIHPALLFHPNPKTVFIMGGGEGSAAREILKHTTIEKVVMCDIDQEVVDFCRRFLTVNSDAFCNKKLELVIKDAKAELEKREEKFDIIVGDLADPVEGGPCYQLYTKSFYQNILKPKLSPNGIFVTQAGPAGIFTHKEVFTSIYNTMKQVFKYVKAYTAHVPSFADTWGWVMASDHEFDVEVDEMDRRIEERVNGELMYLNAPSFVSAATLNKTISLALEKETEVYSEENARFIHGHGVAYRHI
For B13, the “propylamination of R5 (LC-MS time course)” value was “the incorporation of one thermospermine molecule into R5”.
